According to patent publication US20200140532A1:
One block for each binder: values may come before it.

How the values were obtained:
[1] = target: recombinant cynomolgus Aggrecan G1-IGD-G2 (cynomolgus); assay: periplasmic extract ELISA
[2] = target: recombinant cynomolgus Aggrecan G1-IGD-G2 (cynomolgus); assay: ELISA on recombinant G1-IGD-G2
[3] = target: recombinant cynomolgus Aggrecan G1-IGD-G2 (cynomolgus); assay: SPR (ProteOn), off-rate only indicative

- OD 450 nm [1]: 2.12 OD 450 nm
B1: C0101PMP117D05 (VHH, not shown: large carriers)
VHH: KVQLVESGGGLVQAGGSLRLSCAASRRTFNMMGWFRQAPGKEREFVAYITWNGGDTRYAESVKGRFTVSRDDVKNTMALQMNRLDPLDTAVYYCGVRIHGSNWSTKADDYDNWGQGTQVTVSS

- EC50 [2]: 6.8 nM
- koff [3]: 0.0031 s⁻¹
B2: C01010046 (601E08-ALB26) (VHH, not shown: small tags and cut ends)
VHH: DVQLVESGGGLVQPGGSLRLSCTASGRTFSSYAVGWFRQAPGKEREFVAAISRSGRSTYYADSVKGRFTISRDNSKNTVYLQMNSLRPEDTAVYYCAAGLSYYSPHAYYDYWGQGTLVTVSS

- OD 450 nm [1]: 1.32 OD 450 nm
B3: C0101PMP601E08 (VHH, not shown: large carriers)
VHH: B2 VHH

- OD 450 nm [1]: 1.57 OD 450 nm
B4: C0101PMP604G09 (VHH, not shown: large carriers)
VHH: DVQLVESGGGLVQPGGSLRLSCVASGRTFSSYAMGWFRQAPGKEREFVAAITWSSATTYYADSVKGRFTISRDNSKNTVYLQMNSLRPEDTAVYYCAAARIPVGRRSENWDYWGQGTLVTVSS

- OD 450 nm [1]: 1.24 OD 450 nm
B5: C0101PMP606A05 (VHH, not shown: large carriers)
VHH: DVQLVESGGGLVQPGGSLRLSCVASGRTFSIYTMGWFRQAPGKEREFVAAISWSGGRTYYADSVKGRFTISRDNSKNTVYLQMNSLRPEDTAVYYCTAYTGRSYGSYDYWGQGTLVTVSS

- EC50 [2]: 2.2 nM
- koff [3]: 0.15 s⁻¹
B6: C01010094 (604F02-ALB26) (VHH, not shown: small tags and cut ends)
VHH: DVQLVESGGGLVQPGGSLRLSCAASGRTFSSYTMGWFRQAPGKEREFVAAISWSGGRTYYADSVKGRFTISRDNSKNTVYLQMNSLRPEDTAVYYCAAYRRRRASSNRGLWDYWGQGTLVTVSS

- EC50 [2]: 0.068 nM
B7: C01010106 (ALB26-604F02-604F02) (VHH, not shown: large carriers; small tags and cut ends)
VHH 1: B6 VHH
VHH 2: B6 VHH

- OD 450 nm [1]: 1.37 OD 450 nm
B8: C0101PMP604F02 (VHH, not shown: large carriers)
VHH: B6 VHH

- OD 450 nm [1]: 1.25 OD 450 nm
B9: C0101PMP604G01 (VHH, not shown: large carriers)
VHH: DVQLVESGGGLVQPGGSLRLSCAASGRTFSSYTMGWFRQAPGKEREFVAAISWSGRTTYYADSVKGRFTISRDNSKNTVYLQMNSLRPEDTAVYYCAAYRRVRYTNLEVWDYWGQGTLVTVSS

- EC50 [2]: 5.4 nM
- koff [3]: 0.02 s⁻¹
B10: C01010060 (606A07-ALB26) (VHH, not shown: small tags and cut ends)
VHH: DVQLVESGGGLVQPGGSLRLSCVASGRTFSIYGMGWFRQAPGKEREFVAAINGGSRTYYADSVKGRFTISRDNSKNTVYLQMNSLRPEDTAVYYCAADRSGYGTSLDWWYDYWGQGTLVTVSS

- EC50 [2]: 0.3 nM
B11: C01010113 (ALB26-606A07-606A07) (VHH, not shown: small tags and cut ends)
VHH 1: B10 VHH
VHH 2: B10 VHH

- OD 450 nm [1]: 2.41 OD 450 nm
B12: C0101PMP606A07 (VHH, not shown: large carriers)
VHH: B10 VHH

- EC50 [2]: 0.21 nM
- koff [3]: 0.0018 s⁻¹
B13: C01010097 (608A05-ALB26) (VHH, not shown: small tags and cut ends)
VHH: DVQLVESGGGLVQPGGSLRLSCAASGRTFSTYTMGWFRQAPGKEREFVAAISWSGGTTYYADSVKGRFTISRDNSKNTVYLQMNSLRPEDTAVYYCAARPRYYYYSLYSYDYWGQGTLVTVSS

- OD 450 nm [1]: 2.48 OD 450 nm
B14: C0101PMP608A05 (VHH, not shown: large carriers)
VHH: B13 VHH

- EC50 [2]: 0.091 nM
B15: C01010109 (ALB26-608A05-608A05) (VHH, not shown: small tags and cut ends)
VHH 1: B13 VHH
VHH 2: B13 VHH

- OD 450 nm [1]: 2.57 OD 450 nm
B16: C0101PMP113A01 (VHH, not shown: large carriers)
VHH: EVQLVESGGGLVQPGGSLRLSCSASGFTFSGSWMFWVRQAPGKDYEWVASINSSGGRTYYDDSVKGRFTISRDSAKNTLYLEMNNLKPEDTALYFCARSPRVGSWGQGTQVTVSS

- OD 450 nm [1]: 2.21 OD 450 nm
B17: C0101PMP117G09 (VHH, not shown: large carriers)
VHH: EVQLVESGGGSALPGGSLRLSCAASGITFSSRYMRWYRQAPGRQRELVAAISSGGRTDYVDSVRGRFTLSINNAKNTVYLQMNDLKPEDTAVYYCYRPRMYVDGTYEKELWGQGTLVTVSS

- OD 450 nm [1]: 1.18 OD 450 nm
B18: C0101PMP115B08 (VHH, not shown: large carriers)
VHH: KVQLVESGGGLVQPGGSLRLSCAASGFTFSMYAMKWVRQAPGKGLEWVSGINSSGGRTNYAGSVKGRFTISRDNAKNTLYLQMNSLKPEDTAVYYCATDFLGGRNSRGQGTQVTVSS

- OD 450 nm [1]: 2.04 OD 450 nm
B19: C0101PMP604B05 (VHH, not shown: large carriers)
VHH: DVQLVESGGGLVQPGGSLRLSCVASGRTFSIYTMAWFRQAPGKEREFVAAISWSSGRTYYADSVKGRFTISRDNSKNTVYLQMNSLRPEDTAVYYCTAYTGPRSGYDYWGQGTLVTVSS

- EC50 [2]: 4.4 nM
- koff [3]: 0.0069 s⁻¹
B20: C01010054 (114F08-ALB26) (VHH, not shown: small tags and cut ends)
VHH: EVQLVESGGGLVQAGGSLRLSCAASGSTFIINVVRWYRRTPGKQRELVATISSGGNANYVDSVRGRFSISRDGAKNAVDLQMNGLKPEDTAVYYCNVPTTHYGGVYYGPYWGQGTQVTVSS

- OD 450 nm [1]: 2.32 OD 450 nm
B21: C0101PMP114F08 (VHH, not shown: large carriers)
VHH: B20 VHH

- EC50 [2]: 0.076 nM
B22: C01010118 (ALB26-114F08-114F08) (VHH, not shown: small tags and cut ends)
VHH 1: B20 VHH
VHH 2: B20 VHH

- OD 450 nm [1]: 0.6 OD 450 nm
B23: C0101PMP102G11 (VHH, not shown: large carriers)
VHH: EVQLVESGGGLVQAGGSLRLSCAASGRSFSSYAMGWFRQAPGKEREFVSIISWSGGSTVYADSVKGRFTISRDNAKNTVYLQMNSLKPEDTAIYYCAAGRLYRATPRPADFGSWGQGTQVTVSS

- OD 450 nm [1]: 1.83 OD 450 nm
B24: C0101PMP609C09 (VHH, not shown: large carriers)
VHH: DVQLVESGGGLVQPGGSLRLSCAASGTIFSINVMGWYRQAPGKEREFVAAITTGGRTNYADSVKGRFTISRDNSKNTVYLQMNSLRPEDTAVYYCNAEVTTGWVGYSWYDYWGQGTMVTVSS

- OD 450 nm [1]: 2.36 OD 450 nm
B25: C0101PMP112A03 (VHH, not shown: large carriers)
VHH: EVQLVESGGGLVQPGGSLRLSCAASGSIFSNRFMYWYRQAPGKQRELVASITLSGSTNYADSVKGRFTISRDNAKNTVYLQMNSLKPEDTAVYYCNTFLQNSFYWGQGTQVTVSS

- OD 450 nm [1]: 2.5 OD 450 nm
B26: C0101PMP112A01 (VHH, not shown: large carriers)
VHH: EVQLVESGGGLVQTGGSLRLSCVASGRAFSNYIMGWFRQAPGKERDFVAAINWNGVTTHYTDSVKGRFTISRDNAKSTSYLQMDSLKPDDTAVYFCAARGTVYSRTYGVSEEGYMYWGQGTQVTVSS
